In patent publication US20240117073A1, “METHODS OF TREATING NEOPLASTIC ASTROCYTOMA” (Ludwig Institute for Cancer Research Ltd., priority 2009, published 2024):
Several values for one entry are separate records, joined by “and”; a condition that tells them apart may be missing. Equal entries are not always repeated. Entries after “also recorded” stand apart in the source; their conditions may differ. Marks after values point to notes of the source that are not given here.

Experiments:
U87MG.wtEGFR cells = test: FACS binding to cell lines; format: cell-based, human
Description: Briefly, cells were labelled with the relevant antibody (10 μg/ml) followed by fluorescein-conjugated goat anti-mouse IgG (1:100 dilution; Calbiochem San Diego, CA, USA; Becton-Dickinson PharMingen, San Diego, CA, US) as described previously (Nishikawa et al., 1994). FACS data was obtained on a Coulter Epics Elite ESP by observing a minimum of 5,000 events and analyzed using EXPO (version 2) for Windows.
(§1) Stained cells were analyzed with a FACS Calibur™ using Cell Quest™ software (Becton-Dickinson PharMingen). […] 1. Mouse IgG2a or IgG2b was used as an isotype control.
Cell lines and antibodies were prepared as described in Example 1. […] Cells (1 3 10 6) were incubated with 5 μg/ml of the appropriate antibody or an isotype-matched negative control in PBS containing 1% HSA for 30 min at 4° C. After three washes with PBS/1% HSA, cells were incubated an additional 30 min at 4° C. with FTTC-coupled goat anti-mouse antibody (1:100 dilution; Calbiochem, San Diego, CA). After three subsequent washes, cells were analyzed on an Epics Elite ESP (Beckman Coulter, Hialeah, FL) by observing a minimum of 20,000 events and analyzed using EXPO (version 2) for Windows.

U87MG.DK cells = test: FACS binding to cell lines; format: cell-based, human
Description: as §1

[1] = biological target: T1, sEGFR (recombinant extracellular domain, amino acids 1-621, of the wild-type EGFR) (Homo sapiens, UniProt P00533); test: ELISA on sEGFR coated plates; format: binding
T1 construct: sEGFR is the recombinant extracellular domain (amino acids 1-621) of the wild-type EGFR; host or cells: CHO cells
Description: Two types of ELISA were used to determine the specificity of the antibodies. […] Growth Factors. 18, 11-29). Antibodies were added to wells in triplicate at increasing concentration in 2% HSA in phosphate-buffered saline (PBS).

sEGFR = biological target: T2, sEGFR (Homo sapiens, UniProt P00533); test: BIAcore, immobilized sEGFR; format: binding
T2 construct: sEGFR is the recombinant extracellular domain (amino acids 1-621) of the wild-type EGFR; host or cells: CHO cells
Description: In a second set of BIAcore™ experiments, sEGFR was immobilized on a CM microsensor chip at a surface density of ˜4000RU. Serial dilutions of mAbs were tested for reactivity with sEGFR.

U87MG xenografts = test: preventative xenograft model; format: in vivo, nude mice; details: 1 mg per injection i.p., 3 times per week for 2 weeks
Description: (§2) Tumor cells (3×10^6) in […] of PBS were inoculated subcutaneously into both flanks of 4-6 week old female nude mice (Animal Research Centre, Western Australia, Australia). […] Treatment was continued for a total of 6 doses, 3 times per week for 2 weeks. In the established model, treatment was started when tumors had reached a mean volume of 65±6.42 mm^3 (U87MG.Δ2-7), 84±9.07 mm^3 (U87MG), 73±7.5 mm^3 (U87MG.wtEGFR) or 201±19.09 mm^3 (A431 tumors). Tumor volume in mm^3 was determined using the formula (length×width^2)/2, where length was the longest axis and width the measurement at right angles to the length (Clark et al. (2000) Therapeutic efficacy of anti-Lewis (y) humanized 3S 193 radioimmunotherapy in a breast cancer model: enhanced activity when combined with Taxol chemotherapy. Clin. Cancer Res. 6, 3621-3628). Data was expressed as mean tumor volume±S.E. for each treatment group. Statistical analysis was performed at given time points using Student's t-test. Animals were euthanized when the xenografts reached an approximate volume of 1.5 cm^3 and the tumors excised for histological examination. This research project was approved by the Animal Ethics Committee of the Austin and Repatriation Medical Centre.

U87MG.wtEGFR xenografts = test: established xenograft model; format: in vivo, nude mice; details: day control animals were sacrificed; 1 mg injections
Description: as §2, with “Centre. […]” for “Centre.”

A431 xenografts = test: established xenograft model; format: in vivo, nude mice; details: day 13; 1 mg injection
Description: as §2
At day 13, when control animals were sacrificed, the mean tumor volume was 1142±120.06 mm^3 for the control group and 451±65.58 mm^3 for the 1 mg injection group (p<0.0001).

normal tissues = test: immunohistochemistry of normal tissue; parameters: species or system human
Description: (§3) Immunohistochemical analysis was performed using […] sections of fresh frozen tissue applied to histology slides and fixed for 10 minutes in cold acetone. Bound primary antibody was detected with biotinylated horse anti-mouse antibody followed by an avidin-biotin-complex reaction. Diaminobenzidine tetra hydrochloride (DAB) was used as chromogen. The extent of the immunohistochemical reactivity in tissues was estimated by light microscopy and graded according to the number of immunoreactive cells in 25% increments as follows: • Focal=less than 5% • +=5-25% • ++=25-50% • +++=50-75% • ++++=>75%
There was some variable staining present in tonsils with mAb806 that was restricted to the basal cell layer of the epidermis and mucosal squamous cells of the epithelium. In placenta, occasional immunostaining of the trophoblast epithelium was observed. […] All tissues were positive for the wtEGFR as evidenced by the universal staining seen with the 528 antibody (Table 3).

[2] = tested on: panel of 12 different malignancies; test: immunohistochemistry of tumor panel; parameters: species or system human
Description: as §3
The extent of de2-7 EGFR in other tumor types was examined using a panel of 12 different malignancies. […] This staining was strongly dependent on antibody concentration used and was considered nonspecific background reactivity.

[3] = tested on: U87MG.wtEGFR brain xenografts; test: systemic treatment of intracranial xenografts; parameters: species or system nude mice; details: mouse, in vivo
Description: U87MG.ΔEGFR cells (1×10^5) or 5×10^5 LN-Z308.ΔEGFR, A1207.ΔEGFR, U87MG, U87MG.DK, and U87MG.wtEGFR cells in 5 μl of PBS were implanted into the right corpus stratum of nude mice brains as described previously (Mishima et al. (2000) A peptide derived from the non-receptor binding region of urokinase plasminogen activator inhibits glioblastoma growth and angiogenesis in vivo in combination with cisplatin. Proc. Natl. Acad. Sci. U.S.A. 97, 8484-8489).

DU145 xenografts = test: established xenograft model; format: in vivo, nude mice; details: day 67; 1 mg i.p.
Source text: Xenografts were allowed to establish for 18 days before therapy commenced (3 times a week for 3 weeks on days indicated). At this time the average tumor volume was 90 mm^3 (FIG. 68D).

B1: mAb806: murine monoclonal antibody recognizing de2-7 EGFR and amplified EGFR; VH SEQ ID NO:2, VL SEQ ID NO:4 (antibody, listed as Mus musculus, V domains shown)
VH: MRVLILLWLFTAFPGVLSDVQLQESGPSLVKPSQSLSLTCTVTGYSITSDFAWNWIRQFPGNKLEWMGYISYSGNTRYNPSLKSRISITRDTSKNQFFLQLNSVTIEDTATYYCVTAGRGFPYWGQGTLVTVSA
VL: MVSTAQFLAFLLLWFPGARCDILMTQSPSSMSVSLGDTVSITCHSSQDINSNIGWLQQRPGKSFKGLIYHGTNLDDEVPSRFSGSGSGADYSLTISSLESEDFADYYCVQYAQFPWTFGGGTKLEIKR
U87MG.wtEGFR cells
  FACS staining: stained; also recorded: reacted weakly
U87MG.DK cells
  FACS staining: reacted intensely
[1]
  inhibition of antibody binding to immobilized sEGFR by sEGFR in solution: unable to inhibit
[1]; DH8.3 up to 10 μg/ml
  binding to immobilized wild-type sEGFR: dose-dependent and saturating binding curves
[1]; sEGFR heated 10 min at 95° C.
  inhibition of antibody binding to immobilized sEGFR by denatured sEGFR in solution: able to inhibit
sEGFR
  reactivity with denaturated sEGFR: strongly reactive
U87MG xenografts
  effect on xenograft growth: no effect
U87MG.wtEGFR xenografts
  mean tumor volume: 468±78.38 mm^3 and 500±80 mm^3
A431 xenografts
  mean tumor volume: 451±65.58 mm^3 and 450±70 mm^3
Normal tissues; Skin
  reactivity: − occ. weak reactivity
Normal tissues; Tonsil
  reactivity: − occ. weak reactivity
[2]; Colonic carcinoma
  positive tumors/tumors tested: 0/10
[2]; Head + neck cancer (sqcc)
  positive tumors/tumors tested: 7/11
[2]; Leiomyosarcoma
  positive tumors/tumors tested: 0/5
[2]; Liposarcoma
  positive tumors/tumors tested: 0/5*
[2]; Lung (sqcc, adeno, neuroend)
  positive tumors/tumors tested: 6/12
[2]; Malignant melanoma metastases
  positive tumors/tumors tested: 0/10
[2]; Mammary gland
  positive tumors/tumors tested: 1/10
  staining grades of positive tumors: (foc)
[2]; Mfh Malignant fibrous histiocytoma
  positive tumors/tumors tested: 0/5*
[2]; Ovary (serous-papillary)
  positive tumors/tumors tested: 0/5
[2]; Seminoma
  positive tumors/tumors tested: 0/10
[2]; Synovial sarcoma
  positive tumors/tumors tested: 0/5*
[2]; Urinary bladder (tcc, sqcc, adeno)
  positive tumors/tumors tested: 3/10*
[2]; head and neck tumors
  tumors with positive staining: 64%
[2]; lung carcinomas
  tumors with positive staining: 50%
[2]; urinary tumors
  tumors with positive staining: 30%
[3]
  effect on survival: slightly extended
  median survival: 23 days
DU145 xenografts
  mean tumor volume: 605 mm^3
